Test results taken from article PMC8121779.

Biological target: LMW-E-T1 (low molecular weight form of cyclin E, T1), MMTV transgene in mouse salivary gland tumors

decrease of cyclin E-associated histone H1 kinase activity after 3 rounds of immunodepletion of CDK1 (90%), CDK2+/+ tumor lysate (sample 3085): 7%
decrease of cyclin E-associated histone H1 kinase activity after 3 rounds of immunodepletion of CDK1 (90%), CDK2-/- tumor lysate (sample 4111): 14%
Substance: CDK1 (endogenous in mouse salivary gland tumors) (from UniProt P11440 1-297) (enzyme)
